Laboratory results published in the RNAGym collection of RNA variant scans (doi:10.1101/gr.219683.116).

B1: mRNA-splicing (parent)
chain: AGUUGCUGCUGGGAGCUCCAGCACAGUGAAAUGGACAGAAGGGCAGAGCAA

Variants of: B1
Experiment: exon inclusion enrichment index; higher = more inclusion; WT1 exon 5 minigene, HEK293

| Variant | exon inclusion enrichment index |
| --- | --- |
| G5C C6U G8C C9U U10C G33C G34U | 1.29 |
| G5C C6A U7C G8A U10A C19G | 0.078 |
| C6A U7A C9A U10A A31G U32C | 2.27 |
| C6A U7A C9A U10A A31G U32G | 0.383 |
| G5A C6G U7G C9A G26A U27G | 0.00208 |
| G5C C6G U7C U10C A30C A31U | 3.41 |
| G5C C6U G8C C9U U10C G34A A35C | 1.47 |
| C19U | 0.199 |
| G5A U7C G8C C9A U10C | 1.56 |
| G5C C6G U7C U10C A37G G38U | 1.81 |
| G5C C6G U7C U10C G41C | 4.53 |
| C6A U7A C9A U10A A25G G26C | 2.3 |
| C6A U7A C9A U10A A25G G26U | 1.43 |
| G5C C6A U7C G8A U10A G15C C16U | 0.0687 |
| U4C C6U G8C C9U U10C | 2.37 |
| G5C C6G U7C U10C C24U A25U | 3.01 |
| G5U G8U C9U A40C | 0.385 |
| U3G U4A G5C C6G U7C U10C | 2.08 |
| G5U G8U C9U A45C G46C | 0.0849 |
| G38A | 0.0459 |
| G5C C6A U7C G8C C9U U10A | 0.107 |

| Variant | exon inclusion enrichment index |
| --- | --- |
| G5U U7C U10C | 3.02 |
| G2C U3A C6A U7A C9A U10A | 0.863 |
| G5C C6A U7C G8A U10A C22A | 0.0834 |
| G5C C6U G8C C9U U10C G34U A35U | 0.377 |
| G5C C6U G8C C9U U10C G38U A39G | 0.734 |
| G5A C6U U7A G8U C9A G38C | 0.0329 |
| G5C C6G U7C U10C A20G G21C | 2.95 |
| G5C C6G U7C U10C A31C | 3.8 |
| U4G G5U C6A U7C G8A U10A | 0.093 |
| G2A U3A G5C C6U G8C C9U U10C | 1.94 |
| C6A U7A G8C U10A | 0.371 |
| G5C C6G U7C U10C C36G A37U | 2.09 |
| C6A U7C G8A C9A U10C | 2.62 |
| C6A U7A C9A U10A C18A | 0.411 |
| C24G | 0.0337 |
| C6A U7A C9A U10A G38U A39G | 0.321 |
| U4A G5C C6A U7A C9A U10A | 0.526 |
| G2U C6A U7C C9A U10C | 4.3 |
| G5A C6U U7A G8U C9A C44G A45C | 0.138 |
| G5C C6U G8C C9U U10C G42A G43U | 3.86 |
| U17G | 0.247 |

| Variant | exon inclusion enrichment index |
| --- | --- |
| G5U G8C C9U | 0.417 |
| C6A U7A C9A G11A | 0.721 |
| C6A U7A C9A G11C | 3.26 |
| U3C G5C C6G U7C U10C | 1.22 |
| G5U G8U C9U A23U C24A | 0.0491 |
| G5C C6A U7C G8A U10A U27G | 0.0422 |
| A45C G46C | 0.068 |
| U4G C6U G8C C9U U10C | 0.778 |
| C6A U7A C9A U10A A47U G48A | 0.579 |
| G5C C6U G8C C9U U10C A23U C24U | 0.198 |
| G5C C6U G8C C9U U10C A14C | 1.3 |
| C6A U7A C9A U10A G26U U27A | 0.264 |
| G5A C6G U7G C9A G41U G42U | 0.00223 |
| G5A C6G U7G C9A G41U G42A | 0.000614 |
| G2A G5A C6U U7A G8U C9A | 0.211 |
| G5A U7C G8A U10C A40U G41A | 0.108 |
| G5U G8U C9U C36A A37C | 0.21 |
| G5A U7C G8U C9A U10C | 1.23 |
| G5A C6G U7G C9A C18U C19G | 0.00111 |
| C6A U7A C9A U10A A20U G21U | 0.376 |
| G5C C6U G8C C9U U10C A40U G41U | 0.94 |

| Variant | exon inclusion enrichment index |
| --- | --- |
| G5C C6U G8C C9U U10C C22A A23U | 1.31 |
| G5A C6G U7G C9A G15A C16U | 0.000755 |
| G5U G8U C9U A29C A30U | 0.0831 |
| G5A C6U U7A G8U C9A C19G A20G | 0.0128 |
| C6A U7A C9A U10A A20G G21A | 1.2 |
| G26A U27G | 0.311 |
| G5A C6G U7G C9A C18A | 0.000986 |
| G5C C6G U7C U10C C18U C19A | 0.76 |
| C6A U7A C9A U10A A39C A40C | 1.65 |
| G5U G8U C9U A40C G41U | 0.079 |
| U17C C18G | 0.369 |
| G5C C6G U7C U10C A37C G38C | 2.99 |
| C6A U7C C9A U10C G43A | 4.63 |
| G5C C6G U7C U10C A37U G38C | 2.27 |
| G5A C6G U7G C9G U10A | 0.00648 |
| C6A U7A G8A U10A | 0.0891 |
| G5C C6U G8C C9U U10C C44G | 2.79 |
| U3G C6A U7A C9A U10A | 0.238 |
| G5C C6U G8C C9U U10C C18U C19U | 0.0402 |
| G5U G8U C9U A20U | 0.191 |
| G5C C6U G8C C9U U10C G11C | 2.41 |
